From the supplement of paper PMC12042874
± gives the uncertainty stated by the source.

experiment: amyloid nucleation score (Sup35N fusion, yeast selection) (log enrichment); library NNK3; higher = more nucleation; inactive = no reads after selection
Outline: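 Peptides of 20 random codons fused to Sup35N were expressed in psi-negative yeast, induced 24 hours with 100 μM copper sulfate, then grown 7 days at 30°C on medium lacking adenine and uracil. Input and output plasmid inserts were Illumina-sequenced. Nucleation score is the DiMSum log enrichment of output over input reads, centred on the mode score of non-aggregating sequences, excluding sequences with under 100 input reads. Random libraries had three technical output replicates.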

| Substance | amyloid nucleation score |
| --- | --- |
| RSKNWAVIMIGR | inactive |
| RSLNPWLYAVSLHYEQFVGV | inactive |
| RSPTNV | inactive |
| RSQFV | inactive |
| RSRDIGVFTGVQCLVRYRRY | inactive |
| RSRNAIVLGACYC | inactive |
| RSRSYRMGSLLVKSWILTLT | inactive |
| RSSKSEGYGFVGVGI | inactive |
| RSSSCLKTYLYLCGGWTSTF | 0.003 ± 0.26 |
| RSSSCVLFTAGTQNNRVFVV | inactive |
| RSVSNVFRLCLDAWGKVRRH | inactive |
| RSVVLNRADMECKQELVNLN | inactive |
| RSYFC | inactive |
| RTAVVWV | inactive |
| RTCSLRCFCYCHLYFYDVNT | inactive |
| RTGPTRALRVLHLDAMDALV | inactive |
| RTKFWMRRKRLLPSILYNEL | inactive |
| RTKKMRNGASHRVMS | inactive |
| RTPHELKFRCSFQKVWQGMV | inactive |
| RTRFVCICTSSNSLLYGRSS | 0.714 ± 0.25 |
| RTSFLGVID | inactive |
| RTTINLLMCGHVMGFNSCLF | 1.99 ± 0.084 |
| RTWTSCDVICLGICLRSLAK | inactive |
| RTYARYSMVGRLTMTSTRCE | inactive |
| RVAHFY | inactive |
| RVCLL | -0.539 ± 1.4 |
| RVCSW | inactive |

| Substance | amyloid nucleation score |
| --- | --- |
| RVDWRNGRVRRHLRHVLRIN | inactive |
| RVEMICFQDYLEYKRE | inactive |
| RVGISTYLVVSEE | inactive |
| RVIATRDDCPFLGW | inactive |
| RVIIRKCDYFG | inactive |
| RVKSVTVMMIFDNYSCMVCN | 1.93 ± 0.069 |
| RVKVSYASYARK | 1.49 ± 0.12 |
| RVLNAYSLEYKCISSMPWYL | 1.49 ± 0.14 |
| RVMAMYIGV | inactive |
| RVMRHLFHFVCNKSLDYWYR | inactive |
| RVMSWMILNKYVKIPYCRHR | inactive |
| RVRVNPSVHRRPRYGND | inactive |
| RVSLLNKGVGLRNIRFHEFL | inactive |
| RVSRADRGRCSSFYNLRVLS | inactive |
| RVSSFMSLTVGRYGKLHRDS | inactive |
| RVTFWPFVVSAFRVMYGICK | inactive |
| RVVCGNTGNVAIKKGLINMC | inactive |
| RVWHLYTMV | -1.11 ± 1.9 |
| RVWMIGGYSDLFHWNSVLVS | inactive |
| RWNDKWGVDVRSLIIIFVGS | inactive |
| RWNIS | 0.28 ± 0.22 |
| RWNVHCYAMLFDVGLVDARL | inactive |
| RWWVNSCMEIM | inactive |
| RWYRLSGYKSHRNR | inactive |
| RYDLIVKVVVSGESVSTWCC | inactive |
| RYDWLLGSVWVFLLA | inactive |
| RYIYPVDLYIWYNYGILLNR | 0.777 ± 0.23 |

| Substance | amyloid nucleation score |
| --- | --- |
| RYRLSCWWIRLGGNRLAWY | inactive |
| RYRNIYC | inactive |
| RYVGAVWYYTMNIVNYNSFI | 1.7 ± 0.06 |
| RYVQLCADYSHGF | inactive |
| SACNAPSLNSTLIVT | inactive |
| SAEVATFFNCKYHSSLSILT | inactive |
| SAEVF | inactive |
| SAGYGLPPPVEYFNWPFSC | -0.394 ± 1.9 |
| SAIYMTVTVLVPFGFEMDNK | 0.178 ± 0.49 |
| SAKCTKEFYSNASKYFNSYL | inactive |
| SAKFTLLGISL | inactive |
| SALGSSTSFYNGMRRPFRYH | inactive |
| SAMFTGNLYFDFVDPCYSGW | inactive |
| SAPRAEVSNRIK | inactive |
| SARIPSLWNHWRIW | inactive |
| SARRNSRTFLSLFVFHLFRA | inactive |
| SARVRAVAMFPPPALT | inactive |
| SARYDFSYEYGRIKYRELDR | 1.1 ± 0.15 |
| SASCKYGVCLSDLLVSDWHY | inactive |
| SAYRVKMHKRRKAESVLGFR | inactive |
| SCFTEIEWS | inactive |
| SCGSSH | inactive |
| SCHLEVLFISLFD | inactive |
| SCIFNWFGFYNIINVFNLCF | 2.5 ± 0.053 |
| SCILCIFPVRLVFYMM | inactive |
| SCMKDMWFVRVMIGLEKKNS | inactive |
